Experimental data as given in publication PMC8034659.
Positions count from the first letter of the chain named.

Assays:
Experiment in all cases: SPR
[1] = target: T1, TrfA R236E (plasmid RK2, UniProt P07676 98-382, R236E;G254D;S267L)
T1 sequence: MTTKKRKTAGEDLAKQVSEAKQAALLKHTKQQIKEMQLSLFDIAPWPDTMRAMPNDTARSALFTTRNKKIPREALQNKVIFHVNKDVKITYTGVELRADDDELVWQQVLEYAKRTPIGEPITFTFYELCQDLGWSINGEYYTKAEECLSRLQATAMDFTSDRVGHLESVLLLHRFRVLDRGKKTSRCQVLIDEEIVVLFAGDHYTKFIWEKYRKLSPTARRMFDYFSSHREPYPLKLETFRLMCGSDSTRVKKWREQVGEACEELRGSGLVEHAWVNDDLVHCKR

[2] = target: T2, TrfA P151S/E361K (plasmid RK2, UniProt P07676 98-382, P151S;G254D;S267L;E361K)
T2 sequence: T1 sequence with P54S, E139R, E264K

[3] = target: T3, TrfA T105E (plasmid RK2, UniProt P07676 98-382, T105E;G254D;S267L)
T3 sequence: T1 sequence with T8E, E139R

[4] = target: T4, TrfA wt (G254D/S267L, 33 kDa) (plasmid RK2, UniProt P07676 98-382, G254D;S267L)
T4 sequence: T1 sequence with E139R

B1: five RK2 iterons (ItT/ItB) (dsDNA)
DNA 1: CCTGCGGTATTGACACTTGAGGGGCGCGACTACTGACAGATGAGGGGCGCGATCCTTGACACTTGAGGGGCAGAGTGATGACAGATGAGGGGCGCACCTATTGACATTTGAGGGGCTGTCCACAGGCAG
DNA 2: CTGCCTGTGGACAGCCCCTCAAATGTCAATAGGTGCGCCCCTCATCTGTCATCACTCTGCCCCTCAAGTGTCAAGGATCGCGCCCCTCATCTGTCAGTAGTCGCGCCCCTCAAGTGTCAATACCGCAGG
binding result [1]: no binding
binding result [2]: binds
binding result [3]: binds
binding result [4]: binds
